B1: RGS4: regulator of G protein signaling 4, RGS family member (protein)
chain: MCKGLAGLPASCLRSAKDMKHRLGFLLQKSDSCEHNSSHNKKDKVVICQRVSQEEVKKWAESLENLISHECGLAAFKAFLKSEYSEENIDFWISCEEYKKIKSPSKLSPKAKKIYNEFISVQATKEVNLDSCTREETSRNMLEPTITCFDEAQKKIFNLMEKDSYRRFLKSRFYLDLVNPSSCGAEKQKGAKSSADCASLVPQCA
B2: NF1: canonical RAS-GAP; recombinant NF1 GAP related domain (1198-1530aa) (protein)
chain: ETVLADRFERLVELVTMMGDQGELPIAMALANVVPCSQWDELARVLVTLFDSRHLLYQLLWNMFSKEVELADSMQTLFRGNSLASKIMTFCFKVYGATYLQKLLDPLLRIVITSSDWQHVSFEVDPTRLEPSESLEENQRNLLQMTEKFFHAIISSSSEFPPQLRSVCHCLYQATCHSLLNKATVKEKKENKKSVVSQRFPQNSIGAVGSAMFLRFINPAIVSPYEAGILDKKPPPRIERGLKLMSKILQSIANHVLFTKEEHMRPFNDFVKSNFDAARRFFLDIASDCPTSDAVNHSLSFISDGNVLALHRLLWNNQEKIGQYLSSNRDHKA
modifications: left off: small tags and cut ends
B3: RASA1: canonical RAS-GAP (protein)
chain: MEKIMPEEEYSEFKELILQKELHVVYALSHVCGQDRTLLASILLRIFLHEKLESLLLCTLNDREISMEDEATTLFRATTLASTLMEQYMKATATQFVHHALKDSILKIMESKQSCELSPSKLEKNEDVNTNLTHLLNILSELVEKIFMASEILPPTLRYIYGCLQKSVQHKWPTNTTMRTRVVSGFVFLRLICPAILNPRMFNIISDSPSPIAARTLILVAKSVQNLANLVEFGAKEPYMEGVNPFIKSNKHRMIMFLDELGNVPELPDTTEHSRTDLSRDLAALHEICVAHSDELRTLSNERGAQQHVLKKLLAITELLQQKQNQYTKTNDVR

Target: T1, KRAS^G12C (Homo sapiens, UniProt P01116, G12C)
T1 construct: endogenous in cells; host or cells: H358, H2122, H2030, SW1573 (KRAS G12C-mutant lung cancer lines, ATCC)
Assay: GTPase assays of purified GTP-loaded KRAS^G12C incubated with GAP proteins (γ-phosphate, α-phosphate, continuous phosphate release)
Assay type: biochemical
Conditions: purified proteins
Description: GTP[γ^32P] hydrolysis assay. KRAS proteins (0.5 μg) were reacted with 0.04 μM GTP[γ^32P] (6000 Ci/mmol; PerkinElmer Life Sciences) in 100 μL loading buffer (50 mM HEPES, pH 7.5, 50 mM NaCl, 1 mM DTT, 0.1 mM EGTA, 10 mM EDTA, and 1 mg/mL BSA) for 10 min at 30° C. (5, 40). Loading reactions were stopped by placing on ice and adding MgCl2 to a final concentration of 20 mM. The GTPase assays were performed at 30° C. in 100 μL mixtures containing 20 nM of loaded KRAS and either hydrolysis buffer (25 mM HEPES pH 7.5, 50 mM NaCl, 1 mM DTT, 1 mM MgCl2 and 1 mg/mL BSA) alone, or in combination with WCE or purified RGS3 (0.08-0.4 μg/μL). Equimolar comparisons of NF1, RASA1 and RGS3 were carried out using the continuous hydrolysis assay (see below). Reactions were stopped at the indicated time by filtering through 0.45-μm nitrocellulose membrane filters. The filters were washed 3 times with 0.2 mL of ice-cold hydrolysis buffer, air dried, and processed by autoradiography. Reaction rates were determined by fitting an exponential curve to the data, which was normalized to the baseline value. For the determination of protein stability, the hydrolysis reactions were stopped by boiling at 100° C. for 10 min in Laemmli buffer. The samples were then subjected to SDS-PAGE followed by Coomasie staining (CBB) or immunoblotting with a His-specific antibody.
GTP[α^32P] hydrolysis assay. KRAS proteins were loaded with GTP[α^32P] (3000 Ci/mmol; PerkinElmer Life Sciences) and subjected to the hydrolysis reaction as indicated above. Upon completion of the hydrolysis reaction and immobilization of KRAS-nucleotide complexes on nitrocellulose membranes, the nucleotides were eluted by incubating with elution buffer (50 mM HEPES pH 7.5, 50 mM NaCl, 1 mM DTT, 0.1 mM EGTA, 0.1% SDS, 10 mM EDTA, 1 mM GTP and 1 mM GDP) for 3 min at 85° C. […]
Continuous hydrolysis assay (two-step detection of inorganic phosphate). […] The reaction was monitored by reading the absorbance at 360 nm every 10 to 20 s for ˜16-60 min at room temperature. […]

Molecule	effect on GTP-hydrolysis by KRAS^G12C
B1	enhance the KRAS GTPase activity
B2	some activity
B3	no measurable effect
